Test results from a protein production outcome set (Wang et al. 2014).

Assay: label from the status in PepcDB records

Sequence	protein production
MRWKGRRVSSNVEDRRGSGAKVGGISIIGLVVAFVAWKFFGVDPQQAYQATQQITAAQNPSSNAPQQLTADQKEASDFVGTILADTEDTWTPIFKQLGQTYVPPKLVLFNGIVQSGCGTAQSAMGPFYCPTDQKVYIDTSFFKDMREQMGISGEQNQTELSRQDQAGDFAQAYVVAHEVGHHIQNLLGISSQVQQAQAQGSRAQANQLSVRLELQADCFAGIWANHNQQRTQFLEAGDIEEAMDAAQKIGDDYLQKRSTGQVVPDSFTHGTSQQRMHWFEVGLKSGDLNQCDTF	failed
MRWVKAGELPMEAAYGATVSLPDRLIFIGGSNSSDRFSSVLSFSFDCMKDSGLICETLPPLPHAVDNMSATLLGDTLYVLGGNRNGIPSSSMFSLCLDNYSAGWTEVPFPGRPRVQPVCSSLLGKLYVFGGFTSGGDASVSTDGLCYHPESGQWQVVKAPLTTKGEPLTLTGGASVSYGDVLLICAGGVNRDIFEDAISARYQMVRESEYLLQPIEWYRFNDQLLAYNVRSGEWIRIGVPSPMLARAGSSLVVFGDILFYIGGELKPGVLEHHHHHH	failed
MRYGLRVEAITLWILGGLASLEAIPKEWNRELVIALAGPAVSILTGLACYAALFALPASAQVTLFVIGWLAVTNIFLAVFNMLPAFPMDGGRVLRALLARTRPYATATRIAARIGTGFAVLFAVVGVLSFSPLLLLLALFVYGAASSESRTVALAALLDGLSVDDVASPLDATIEANASVEDLVDRMFADRRTEFAVTRGGDVVGVVTVDDFRELSKAEREADTVADLMEADLPRFPAAMAAFDALVELDTARASAAFVDGPEGTRVVSRDDFSSAMEMRRLVDSPEPF	failed
MRYGRTVPVTEAAELPPAPEQAREVFGDRFADAVRYAELLAEAGVQRGLIGPREVPRLWERHLLNCAVLSEVVPEGVTVCDVGSGAGLPGIPLALVREDLKITLLEPLLRRTNFLTEVVELLGLDHVTVIRGRAEEVMGKIPPVHVVTARAVAPLDRLATWGIPLLRPYGEMLALKGDTAEEELKSAATALSKLGAVETSVLHVGEGVVDPLSTVVRVEVGESPGGVRFAAKRAKAARTGRTRRRR	failed
MRYLFSLLFLLAYGSTVAQQPPMLPRDAAIEAKIEKLLEQMSLDEKIGQMVELEIGMITYRDPRYVVEKLARMSEQELADTLRRFGLDKQHNAAQLALTTPEDKQNKEKLMRLYWVSNDIQSKLPFRLDEAALDSVVGKYKVGSILNAPQTTAQTPAMWNQVVKTIQDVSIKHLGIPTVYGLDQMHGTTYSTGGTLFPGAINMAATFNRDLVYKMGEIVAYETRACNVPWIYGPCIDLGRMQAWSRQYESFGEDVFLSSEMGAAALRGMQGDNPNHIDAYHVAGCLKHYFAYGAPYNGLDRSPARLSYEELREKQFAPFLRGIREGALSIMTNSSNVNGVKGTVNREFITGWLKEGLGWDGMVVTDWGDIDGAVTSDRVVPTAKEAIRLAINAGVDMMMVPSQFTYNGLLKELVEEGGVSMERIDDAVRRILRLKHRVGLFEQPNTFAKDYPKFGSEEFAAYSRQAALESIVLLKNDSVDSQSRLLPIKQGTRLLVCGPNANSMRTLNGGWSYTWQGDGADREEFTGHFNTIYEALRNKFGSNHVTLVEGVSYDSKRWAMDHADNIGDAVAAAADNDYVIVCIGENTYAETRGNIADINLSTNQKNLVKALAATGKPIILVLNESRGRAISDIEPLAKAVVHTMLPGNYGGDALAELLAGNENFSGRLPYTYSAQPNAMVNYDYKASEVRETISGVYDYNAKTYEQWWFGAGMSYTTYTYSNLRADKNSFTKDDVLTFTVDVKNTGAMAGKETVMLYASDLYASLMPDNRRLRGFEKIVLAPDESKTVTFRIKASDLAFMGTGKKWTLEAGEFNIACGDQSVSIHCTEDYTWEEENIPDN	failed
MSADIEHIRQIMREADCLYTEAEVDAAIARVGAQINAELADRNPVVFCVMNGGLIFSGKLLTHLNFPLEASYLHATRYRNETTGGDLFWKAKPEVSFIDRDVLIIDDILDEGHTLGAIIDFCKHAGARAVHTAVLIDKDHDRKARPDLKADYVGLPCIDRYIFGFGMDYKGYWRNAAGIYAVKG	failed
MSADTSSLDFHPLRADLYQELHSRPFQIIPPHARVTQIAVITTPEQRTRQFEHLQKLHRLLGEPWPEQEVSCYEQSFGKLRIRREVHMEFTSYTFINLADSDADPFAETGLSLLPDGWLAQLEGTVVGAFHVEVRSSSEDARSELAFMRKHFEGMRLVGSSPQEGAARVLGSFQLHSDNFGRFMVLNHHMSNSQLGRLIQRLMEIETYRLMSLLALPVAREITPSLNDMDQQLARITQSLADNESLDEQQILAELTNIAARIEAYRAHTTFRFSATRAYHRLVLTRLEELREDEVSGHLTITEFMTRRLTPAVKTCEAVNERLEDLSRRVDRASEMMRTRVELAIQSQNQQLLSSMDRRSRIQLMMQHTVEGFSVVAISYYLIGLLKLGLDALTGTGLTINEPLVTGLAIPVVMVLVFIGIRTIHHRFIRMARRQ	failed
MSAECWAALLHDPMTLDMDAVLSDFVRSTGAEPGLARDLLEGKNWDLTAALSDYEQLRQVHTANLPHVFNEGRG	not failed
MSAEEKNLIEILEEGHKVDVVKYIDYVSAPQAGAIATFSGTTRDMFEGKTVLELRYEAYVPMATRCLSSICTTARSTWDIHKIAVAHRLGPVPVGETSVLIAVSSVHRADGLDACKFLIDELKASVPIWKKEVYTNGEIWKENSEFMEKRLELAEKRDSIVKKTVVEEHRRRGCCGSKVRVEEDEEHKDITGDNKSSS	failed
MSAFHIRAEQSRDISAIHDVTEAAFTGIEHSDGTEQDLVDKLRAAKALSLSLVAEADGEVIGHIAASEVLIGGGVQGWFGIGPVSVRPDKQQQGVGIALMGSALDQLRAEGAGGIVLLGDPGYYRRFGFEVVPGLVYPDAPAEFFMAVCLNAPAFPQGVVEYHSAFGG	failed
MSAGLTGIRVAVIGGDDREIYMIPELQKLGAYIVGVGFEKAAPIQGVTLLSSPLEAVEKADVLLFPMYGTDERGDVKAKYSETPIVLNKELLKAVSPKVPLFIGWARPALKSAAEMLGIQIVETANLDQLAILNSIPSAEGAIQMAMEASPITIHGSESFVLGLGRCGWTLARTLKGMGAHVTGVARKPADLARALEMGLEAVHFADLDEKIGKAELIFNTVPHLILDKVMLEQVNHEAVIIDIASLPGGTDFEYAKAKGIKAMLAPGLPGKVAPKAAGKILAQVYPQLILRHLTTKNASLKF	failed
MSAKDLPNGGPRLIDRYLLRLLLWPLAACLGVTVIALLLERILRLLDVLSQSSARFGYVAQLAANLVPHYLGLALPVAFFVALFIVIVKLSDGSEIDALLASGQSLERIAAPFVAVGVLLSVFSIIVFGYMQPYSRYAYRAVMHAAVNAGWNGRLAGGAFIDDKGSLLTADSADIAGQRLTRVFIRRLDAKGQEEIITAASADLKMDPDGKTITMDLRDGRRIAHDAYGTYRNLAFTSLTTQTPLSAAAVLLRDRGGDERELTMGELRREAKSPDPVVSKGTLLSEFYGRLARAAFLPFLPLLAFPLGLASKRGNRAPGLIMAGLLLLAFQHSLLLGQGMAKAGKADAFAAIWIPFTLFAALSVWLFVGSRTRPGDTPVSRLVRRINTLVTHALRLLPQPKKRQAA	failed
MSAPFHSALLDALNQRVVIGDGAMGTMLQAADLTLDDFLGLEGCNEILNDTRPDVLKDIHRAYFEAGADAVETNTFGCNLPNLADYDISDRIRELAEKGTRLARDVADEMGPGRDGMGRFVLGSMGPGTKLPTLGHAPFAILRDAYAEAAMGMIDGGADAILVETCQDLLQVKAAILGSQRAMETLGSRLPIITHVTVETTGTMLLGSEIGAALTALEPLGIDMIGLNCATGPAEMSEHLRHLSKYSSLPVSVMPNAGLPQLGPNGAEYPLTAEELAEALSGFVTEFGLGLVGGCCGTTPEHIRQVAEAVRLVEKAERNPVHESGTSSLYTAVPFQQDASILMIGERTNTNGSKAF	failed
MSAPHDSHTLINVLTLNAHMGFDLLKRRFILAALREAIREVCAEIVCLQEVLGEHALHARRHAQWPAVAHYEYLAEMLWPQFSYGRNAVYPHGHHGNAVLSKFPISSFANHDVSVPGHEPRGVLHAVLQVPGWSEELQVFCVHLGLHEAHRQQQIGLLCARVAALSADAPVVVAGDFNDWRARGHPLLTRCGLVEAVECMHGRVARSFPSRFPVLPLDRIYLRNLRVVQARVLSGLPWSRLSDHLPLLASIAP	failed
MSAPIEQPAWTKRMNANPQSQAAPVSAAQQDLQRLRTHLNTQIIGQSDLVDAMLIALLADGHMLVEGAPGLAKTRAIHVLSRGVEADFQRIQFTPDLLPADLTGTEVYRPQDGSFHFQPGPLFHNLVLADEINRSPAKVQSALLEAMAERQITVGRKTYPLPALFLVMATQNPIEQEGTYPLPEAQLDRFLMYVRIGYPGAEQEKAILRLVRGEAGRPECRAAEAMEPVSQQTLFSAREEVLGVYLAEALEDYLLQLILATREPARYGDSLARWILYGVSPRATLALDRCARARAWLDGRDYVTPDDIQALAPAILRHRLILSYEAEAEGVSSDQVVKDLLRRIAVP	failed
MSAPLFSVVVPAYNQHKFIDSCLTSLQRQTLTDFEVFVVDDCSTDDTGEQIAALIKGDDRFHVITHAHNRGVSAARNSGMAAAKGKYLCFVDGDDWVEPDFLATFLAAYRSAPDTQLVVCGHYGYLAVPSPAKTYNQKDLIANINFGTVGGFSWNKAFIRSIITTHHLKFNEDIDFLEDQLFAFRYANYVQSSEYVPDRTYHYRWRFRSNLAHIGIPFFTARRKMMKILKQENKQVLNEDWNNQLEHHHHHH	failed
MSAPQAPSAPHSPPDVPVMQVIFGLMLAIMLGALEQSIVAVVLPEIALQLNGFEDMAWVISAYLVASTVVTPIYGKLSDVLGRRSVLTFSIVLFVLASIACAMATTMPMLIVARILQGLGGGGLISVSQATIADVVPLRERGKYQGYVSGVWAVASMAGPVIGGYLAHFLSWRWIFWINIPLGLIALIVVRRALRHLPVSGRKHRIDYLGALLFGGGLSGVLVFLTRMGQGHSPLEPQTIGLLAAGLIGLVLFIWQERRAVDPVIPLKMLAVPTVAICCLTLFLCFFQLIAMSVLLPLRFQVVGGAGADTAALRLVPLTLAIPFGAYASGRLMSWSGRYKPLQLAGCLVAPIAIVGLAFVPPQAVVPAALVMIVLGLSIGLQLPSGLVATQNSVPPQQVGIATALTAFSRLLGGAVGVAVLTTVLIALLRHSGMAVSDLHGGEDVLMSMFRRAMDAGDQGDAAAVREAAEHAFRLLFLMSAGVSLIAPFFVMRLKEKTLRGSPAGAAASAAAE	failed
MSAPSDTPTYLHGFSATEQARLLKQARLLETTLFNQIDYSGARRLLEVGSGVGAQTEILLRRFPELHVTGVDLSETQLDAARANLERLAWCRARYTLQQADASDLPFEARQFDAAFLCWVLEHVPSPARVLNEVRRVLLPGSPVYVTEVMNASFLLHPYSPSLWRYWMAFNDFQHDQGGDPFVGAKLGNLLLAGGFRDVHTQIKTLHLDNREPGRRKTMIGFWEEVLLSAADQLLQAGAVEAATVDGMRRELAQVHSDPDAVFFYSFVQARATVY	failed
MSAQKQEKTNVFLDPSKNEAYFKKRVGMGESFDLGVRKVFILGHEVQLYYVNGLCDTQYIIHLLRELVHLNDKEKESGEVEDIVENRLLNQQVSKAETLDEAVDQVLSGLVAIIVEDAGFAFIIDVRSYPGRTPEEPDTEKVVRGARDGLVENIIVNTALIRRRIRDERLRYKMLHIGERSKTDICLCYLEDVADPDLVEVLKKEIEDVKIDGLPMSDKSVEEFLVGQGYNPFPLVRFTERADVAASHILEGHVIVIVDTSPSVIITPTTLFHHVQHAEEYRQTPAVGTFLRWVRFFGILASTFLLPLWLLFVIHPSLLPDNLSFIGLNKDTHIPIIMQIFLADLGVEFLRMAAIHTPTALSTAMGLIAAVLIGDIAINVGLFSPEVILYVSLSAIGAYTTPSYELSLANKMVKLFMLILVALFKVEGFVIGLTILTIVMTSIRSLRTPYLWPLLPFNGKAFWHVLVRTSVPGGKVRPSIVHPRNRSRQP	failed
